Reference: patent US20200408770A1 (NITTO BOSEKI, published 2020)

Experiments:
[1] = target: T1, Ki-67 antigen (MKI67: Marker Of Proliferation Ki-67) (human, UniProt P46013 1-3256); experiment: flow cytometry, formalin-fixed MDA-MB-231 cells, thrombin treatment done; share of nuclei above the 95 percentile of the isotype control
T1 construct: Formalin-crosslinked and possibly partly cleaved; also called K-67

[2] = target: T1, Ki-67 antigen (MKI67: Marker Of …); experiment: flow cytometry, formalin-fixed MDA-MB-231 cells, thrombin treatment not done; share of nuclei above the 95 percentile of the isotype control
[3] = target: T1, Ki-67 antigen (MKI67: Marker Of …); experiment: flow cytometry, formalin-fixed T47D cells, thrombin treatment not done; share of nuclei above the 95 percentile of the isotype control
[4] = target: T1, Ki-67 antigen (MKI67: Marker Of …); experiment: flow cytometry, formalin-fixed SKBr3 cells, thrombin treatment not done; share of nuclei above the 95 percentile of the isotype control
[5] = target: T1, Ki-67 antigen (MKI67: Marker Of …); experiment: flow cytometry, formalin-fixed T47D cells, thrombin treatment done; share of nuclei above the 95 percentile of the isotype control
[6] = target: T1, Ki-67 antigen (MKI67: Marker Of …); experiment: flow cytometry, formalin-fixed SKBr3 cells, thrombin treatment done; share of nuclei above the 95 percentile of the isotype control

T1 sequence (P46013 whole entry): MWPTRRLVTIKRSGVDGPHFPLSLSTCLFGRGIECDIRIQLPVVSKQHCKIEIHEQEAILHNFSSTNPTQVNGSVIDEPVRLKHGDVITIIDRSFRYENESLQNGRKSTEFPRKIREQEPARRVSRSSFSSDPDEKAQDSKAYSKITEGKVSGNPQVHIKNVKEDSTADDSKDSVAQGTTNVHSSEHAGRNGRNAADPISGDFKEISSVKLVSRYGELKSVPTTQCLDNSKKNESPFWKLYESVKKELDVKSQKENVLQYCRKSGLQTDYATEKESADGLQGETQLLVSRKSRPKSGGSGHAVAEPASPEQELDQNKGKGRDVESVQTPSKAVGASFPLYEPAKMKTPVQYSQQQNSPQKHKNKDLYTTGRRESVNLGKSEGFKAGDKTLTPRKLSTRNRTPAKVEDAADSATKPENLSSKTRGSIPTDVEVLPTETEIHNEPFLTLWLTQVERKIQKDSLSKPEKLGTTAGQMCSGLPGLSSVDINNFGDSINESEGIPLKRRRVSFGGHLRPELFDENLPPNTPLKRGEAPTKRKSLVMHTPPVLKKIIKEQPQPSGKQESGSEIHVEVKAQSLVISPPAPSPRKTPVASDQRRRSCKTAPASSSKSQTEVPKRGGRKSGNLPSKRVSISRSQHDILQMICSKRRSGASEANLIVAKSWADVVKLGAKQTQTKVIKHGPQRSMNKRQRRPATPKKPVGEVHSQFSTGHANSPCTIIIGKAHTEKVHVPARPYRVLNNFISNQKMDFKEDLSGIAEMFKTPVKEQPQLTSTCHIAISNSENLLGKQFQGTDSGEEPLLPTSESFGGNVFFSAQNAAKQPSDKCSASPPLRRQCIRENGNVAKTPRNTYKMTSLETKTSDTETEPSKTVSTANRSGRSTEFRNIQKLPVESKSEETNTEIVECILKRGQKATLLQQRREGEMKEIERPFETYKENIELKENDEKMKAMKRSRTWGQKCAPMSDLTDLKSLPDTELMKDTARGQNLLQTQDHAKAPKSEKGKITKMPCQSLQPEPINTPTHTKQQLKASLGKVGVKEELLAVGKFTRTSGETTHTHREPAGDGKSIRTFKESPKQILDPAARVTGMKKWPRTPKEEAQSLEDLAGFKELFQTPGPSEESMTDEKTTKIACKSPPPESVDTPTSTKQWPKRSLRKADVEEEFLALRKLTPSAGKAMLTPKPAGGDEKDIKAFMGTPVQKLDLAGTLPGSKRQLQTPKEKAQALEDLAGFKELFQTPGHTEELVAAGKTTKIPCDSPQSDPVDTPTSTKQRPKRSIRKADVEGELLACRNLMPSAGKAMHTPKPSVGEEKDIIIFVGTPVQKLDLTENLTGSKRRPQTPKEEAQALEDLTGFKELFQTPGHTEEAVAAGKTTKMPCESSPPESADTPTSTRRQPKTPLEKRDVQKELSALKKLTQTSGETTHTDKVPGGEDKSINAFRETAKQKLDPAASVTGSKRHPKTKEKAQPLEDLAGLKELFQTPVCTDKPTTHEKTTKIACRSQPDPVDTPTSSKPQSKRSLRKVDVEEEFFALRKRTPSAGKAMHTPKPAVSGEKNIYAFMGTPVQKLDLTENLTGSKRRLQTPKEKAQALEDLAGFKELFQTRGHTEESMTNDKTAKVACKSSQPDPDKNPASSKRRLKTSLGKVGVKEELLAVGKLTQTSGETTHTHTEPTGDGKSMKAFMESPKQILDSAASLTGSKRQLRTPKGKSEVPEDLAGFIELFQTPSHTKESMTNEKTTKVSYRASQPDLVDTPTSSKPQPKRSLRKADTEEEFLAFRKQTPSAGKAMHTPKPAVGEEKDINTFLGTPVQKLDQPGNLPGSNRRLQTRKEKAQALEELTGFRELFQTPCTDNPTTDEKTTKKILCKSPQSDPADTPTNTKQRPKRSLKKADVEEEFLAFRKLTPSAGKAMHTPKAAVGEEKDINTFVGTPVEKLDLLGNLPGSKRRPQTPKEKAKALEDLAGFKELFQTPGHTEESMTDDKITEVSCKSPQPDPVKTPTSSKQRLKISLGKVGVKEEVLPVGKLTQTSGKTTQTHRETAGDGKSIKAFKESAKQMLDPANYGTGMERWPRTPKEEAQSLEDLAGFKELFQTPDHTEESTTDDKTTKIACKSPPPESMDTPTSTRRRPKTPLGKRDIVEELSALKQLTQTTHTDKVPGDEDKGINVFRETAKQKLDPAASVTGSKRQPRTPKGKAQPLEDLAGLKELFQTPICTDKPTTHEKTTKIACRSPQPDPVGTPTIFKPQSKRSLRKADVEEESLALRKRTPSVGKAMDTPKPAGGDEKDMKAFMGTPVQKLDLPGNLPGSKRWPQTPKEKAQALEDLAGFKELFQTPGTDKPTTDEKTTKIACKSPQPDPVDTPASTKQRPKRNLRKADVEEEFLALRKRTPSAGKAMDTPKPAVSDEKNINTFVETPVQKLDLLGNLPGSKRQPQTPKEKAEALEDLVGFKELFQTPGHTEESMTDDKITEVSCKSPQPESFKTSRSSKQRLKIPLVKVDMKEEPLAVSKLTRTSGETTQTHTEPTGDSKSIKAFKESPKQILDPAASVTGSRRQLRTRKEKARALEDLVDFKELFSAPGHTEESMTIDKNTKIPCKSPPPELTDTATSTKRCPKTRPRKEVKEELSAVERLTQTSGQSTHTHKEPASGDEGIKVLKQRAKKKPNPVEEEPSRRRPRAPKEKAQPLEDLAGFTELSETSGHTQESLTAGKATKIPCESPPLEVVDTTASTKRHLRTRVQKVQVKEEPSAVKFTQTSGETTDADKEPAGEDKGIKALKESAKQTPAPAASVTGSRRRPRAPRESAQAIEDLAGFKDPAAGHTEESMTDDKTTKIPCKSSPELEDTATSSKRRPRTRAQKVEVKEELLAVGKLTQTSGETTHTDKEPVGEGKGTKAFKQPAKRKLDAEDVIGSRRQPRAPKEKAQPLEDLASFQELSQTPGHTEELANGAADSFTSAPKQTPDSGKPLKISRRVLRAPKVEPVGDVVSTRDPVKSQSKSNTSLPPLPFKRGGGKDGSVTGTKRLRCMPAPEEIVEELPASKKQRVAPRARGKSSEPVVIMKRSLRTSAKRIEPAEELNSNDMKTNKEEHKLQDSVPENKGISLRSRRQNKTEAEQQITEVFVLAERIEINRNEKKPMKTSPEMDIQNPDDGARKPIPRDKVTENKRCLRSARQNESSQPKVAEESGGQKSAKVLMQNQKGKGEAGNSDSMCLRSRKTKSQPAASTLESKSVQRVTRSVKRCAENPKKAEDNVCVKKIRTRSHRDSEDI

B1: Ki-67 antibody (Dako, clone: MIB-1, mouse monoclonal antibody) (antibody, V domains shown)
VH: EVQLQESGPGILQPSQTLSLTCSFSSYHFGDIVGWIRQPSGKGLEWLAHNWKDINDNKYNTALKSRLTISKDTSNNQVFLKIASVDTADTATYYCASYGHYDHWGQGSTLTVSS
VL: DIVMTQSPLSLPVSLGDQASISCRSSSQSVINGQSNYLEWYLQKPGQSPKLLIYLVSNRFSGVPDRFSGSGSGTDFTLKISRVEAEDLGVYYCFQSGVHWPTFGGGTKL
Binder B1 has a Ki-67-positive ratio [1] of 39.9, a Ki-67-positive ratio [2] of 33.1 and a Ki-67-positive ratio [3] of 24.3. The Ki-67-positive ratio [4] was 6.52, the Ki-67-positive ratio [5] was 37.3 and the Ki-67-positive ratio [6] was 19.8.
